A short description of the data set: soluble on expression in E. coli; label from the status in PepcDB or PDB records.
With “MAHHHHHHMQRSMMRELCYVGSVALSPMRPKKNAFKLRERGETTRLFCANSEMSNFYGINESGFSNTRPPPYLLRFDKCNDVIAYTNEIDNESLKQIKNLAKLHIIKGHITILPDVHLGKGIIIGSVFLTKHFIIPNGVGVDIGCGVLCVKINKLKKKNLHEGVINNIYKKIKRNIPLSFDYHEKEVFDAKNVLDELVAKYASSNMAHIMNPKHLKQMGTLGGGNHFIEIAYDASGDVKAEPINGNLSGEAHQNDNTQKYACQQNHYPESDIYILIHSGSRNIGKSTAEFYDDLASHESKVKRNDLAYLDLRKKHGQNYLRDMQLCQEYAKYNRIYMMKIIEQIIKEELNCTLDWQNAINIHHNFCNHELVNYFHNGEVKKEYMYVTRKGATSSMKNQLGIIPGNMKVGSYIVRGKGNKLSYNSCSHGCGRVLSRTHAKKIINQADFVNIMKGVRCDTSAKIRDEATQAYKNLNKVLRNQDSLIHVVRRLLPLINVKGG”, the “soluble on expression in E. coli” value is “not soluble”.

Turning to “RPNKGAQQEDERIIQAFDKAIQYMSKRKIGALITIERNTGLDEYIETGIDLDADITGELLINIFIPNTPLHDGAVIIKNEKIAVASAYLPLSESNLIPKEFGTRHRAAVGISEVSDAITIVVSEETGDVSLTLNNELIPGL”, the “soluble on expression in E. coli” value is on record as “not soluble”.

“MGSDKIHHHHHHMAKYLYGRRVKLVLLTPHESVTFDYKQTETHSMGIQFNVPFSDSSTPPTCTVTIMNLSAKHRKLFKKGYEVKLYAGYAEDGVGLLSAGVIRAISPFTSDGTNNTFSFTYREGQEYSKLLSSAEKANKKADEARKKKAKVIGKKAAAGLPKIKKHSALSFGKNTAASTIIRRIASDAGITLSKVYLAKPKKYKKGYAAHGKPITNIKAIAKACGSKVYYRRGSIVIDDLSKVKGHNEHILVTEHVKGRHGGTGLIQYPTTDSDSMAKHKTWTVTSLLRYQVSTGSVVTVENRFLKGTFRVKSGEHVCDDSAFTTAMEVYV”: the “soluble on expression in E. coli” value was “not soluble”.

With “MGSSHHHHHHSSGLVPRGSHMASKSFQLLEPYNIKANLRPYQIKGFSWMRFMNKLGFGICLADDMGLGKTLQTIAVFSDAKKENELTPSLVICPLSVLKNWEEELSKFAPHLRFAVFHEDRSKIKLEDYDIILTTYAVLLRDTRLKEVEWKYIVIDEAQNIKNPQTKIFKAVKELKSKYRIALTGTPIENKVDDLWSIMTFLNPGLLGSYSEFKSKFATPIKKGDNMAKEELKAIISPFILRRTKYDKAIINDLPDKIETNVYCNLTPEQAAMYKAEVENLFNNIDSVTGIKRKGMILSTLLKLKQIVDHPALLKGGEQSVRRSGKMIRTMEIIEEALDEGDKIAIFTQFVDMGKIIRNIIEKELNTEVPFLYGELSKKERDDIISKFQNNPSVKFIVLSVKAGGFGINLTSANRVIHFDRWWNPAVEDQATDRVYRIGQTRNVIVHKLISVGTLEEKIDQLLAFKRSLFKDIISSGDSWITELSTEELRKVIELSVGGY”, the “soluble on expression in E. coli” value is recorded as “soluble”.

On to MTFEMLYSKIHRATITDANLNYIG, for which the “soluble on expression in E. coli” value is “soluble”.

As for “MRLLTCDCTFMGQKHSGSVSVEKKNQENDGPPTYEIVFGWSQSFENLMKHRAGQKYFAEFLKGEYSDENILFWQACEELKREKNAEKIEEKARIIYEDFISILSPKEVSLDSRVREIVNTNMGRPSASTFDEAQNQIYTLMQRDSYPRFLASNIYKTVMGTFGIKEEAV”, the “soluble on expression in E. coli” value is reported as “not soluble”.

As to “MNHQETMTDYLMAFIEGLKNSGVEQAVISPGSRSTPLALLLHRETAIQTFVDVDERSAAFFALGLSKASQKPVVLLCTSGTAAANYYPAICEANISHVPLVVLTTDRPHELRQVGAPQAMDQLQMYQNHVKLFVEMALPEATEEMLNYAYWQGAKGAAFAQQTPAAPVHLNFPLREPLLPDLERKTKSSQQTALFAGQSILSTEQVQQLADQWYQKNGVLVVGGSHTEEEATLFIQLAEALQWPLLADPLANIVTHGQNSEVVIAHSDLFLNVATLPQEPEVVVRFGSLPISKNIMLWLKRLATTETAFYFVDENGQWQEQLKKSQTVIQAKETTFVEQLLTVVKPTEATWLAQWLLLEKTVSEVLLETLNATELNETTASLAVHQTMKENGQLFVSNSMAIRYLDRFMDSRPYRMFGNRGINGIDGIVSTALGMSAIAPTQQNVLLIGDLALYHDMNGLFLAKRYQLPLTIVLLNNNGGGIFSFLSQRTLREDDFEPLFGTPLDLDFSLVAELYGASYQEVKTIAELKQILQAAAEEPQFQVIEVKGNRQENVHLYESILAEIGRRVERQGISWNG”, the “soluble on expression in E. coli” value is recorded as “not soluble”.

Take “MVDIEALQKAIGVTSLSYDEDDDDDDENDAFYSSSHRVSHNYNQPPLPPIPTRDDMSNYSSSRNTPLVRRD”: the “soluble on expression in E. coli” value is on record as “not soluble”.

As to “MISRHFTVLTALNLQTKIKICIRNFSIRGAMTKVNGNSNGNGISASTDLLDTPSAYTQKSNKTHTSIDLRSDTVTVPSVEMRRAMAEAIVGDDVYGEDTTTNRLEQRCAELFGKEAGLFVTSGTMGNLLAIMAHCQRGEEIIVGRYNHIHRWEQGNYAQFAGISATTLEVKPDGTMDLNDIEQAIRVKGGYVQIKDESCDDLEVTSIPDCHMPASKLICIENTHNYTGGKALPIEWMRSVKQLAERRDLKVHMDGARIYNAAVASNCSVSKIASFADTVQMCFSKGLGAPVGSIVVGPKDFIDRARHSRKALGGGWRQSGILAAAAHIALDHADATIRADHERAKTLARMINDATPEEFRTKVFAAEKDITNMVLVHCQNGVTVQQLTDFFQKHDILAMTFDARRIRMVLNWNVSDENLETIVEVYKKFLKQL”, the “soluble on expression in E. coli” value is reported as “not soluble”.

Consider “MGSDKIHHHHHHMNQNRIPLYEALIEFKERRPLSFHVPGHKNGLNFPQGAVEEFKDILSIDVTELSGLDDLHSPFECIDEAQQLLADVYEVEKSYFLINGSTVGNLAMILSCCREHDIVLVQRNCHKSIINGLKLAGANPIFLDSWIDEAYNVPVGIHDEIIKEAIEKYPNAKALILTHPNYYGMGMDLEASIAYAHAHKIPVLVDEAHGAHFCLGGAFPKSALAYGADIVVHSAHKTLPAMTMGSYLHINSRLVKEERVSTYLSMLQSSSPSYPIMASLDIARFTIARIKEKGHDEIVEFLREFKEELSSIPQIAILQYPLQDELKVTVQTRCQLSGYELQSVLEKVGIYTEMADPYNVLFILPLQVNKTYMKAVEMIRAALQSYEVKDKTESIRYTYKGEISPLPYTYKQLEGYETKVVSVEEAVGMIAAEMVIPYPPGIPLIMYGERITSEHKEQIMHLERAGARFQGSTKYMKVYDIESRF”, for which the “soluble on expression in E. coli” value is listed as “not soluble”.

In the case of “MLSFTSRLKKDLFIKAQSLVPQHQLSRVVGKVAESENILIKAAVIQAFKTKYGIDLSIAEQADALKYKSFNEFFTRALKEGVRVVDSATGSIVSPADGAISQLGTIHDGEVFQAKGQSFSVEKLIGDPQLAQPFKQGQFATVYLSPRDYHRVHMPFTGTLTETLYIPGELFSVNQVTAENIPGLFARNERMVCLFDTELGRMAVVLVGAMIVAGIETVVTGKVKPTGRLELNHHDVTLQKGDELGRFYLGSTAIILFEKDKMVWDQQFKANSIVVMGEKLGQSTNPLEHHHHHH”, the “soluble on expression in E. coli” value was “not soluble”.

As to “MGSDKIHHHHHHMKKKIVVLLPMKANSTRVKGKNFRDFCGKPLFRWILDSLLAVEDIDQIVINTDARDILAENGLVGTDRILIRDRKKEICGDEVSMNRVLADDVENVEADIYLMTHTTNPLLSSNTIKQAINQYNEELASASADSLFTVNKIQTRFYTAKCEPINHDPDNLIPTQDLEPWFEENSNLYLFNRESFAKTNARIGAKPSMMVSPAMECSDIDTPDDWDQAVVMTHYMLEKGFVKL”, the “soluble on expression in E. coli” value was “not soluble”.

In the case of “MGSDKIHHHHHHMVASKQGLDLFQASGEPYEIGYRLGELARPVFAGYMRQSRAWQAVRRWRGAPFVHKLREAAHAHFPALLVELDGMAAGLGWTAEDMFLWNCRGELIHNVPDGCTTLAAHVGDTRFIAHNEDGDPFLGERCALVEVRPAGKPGFVSFHYPGSLPGHTFAASRAGVVQAINNLRIRAPVAGVPRMILARAVLDAASLDEALHILRDTPAASGFHHTLGCAGDARLVSVEVSARRCSVQTVPNLYGHANHMIHPGCEAEAQIVTDSSRERQARVNALLPALSRPLQPAALLDVLQDRAPSGLPIYRDDPLDPDGENTLATALFEIGGAGVSMKVYRQGQRAFDAFIARAACGQTGA”, the “soluble on expression in E. coli” value is on record as “not soluble”.

For the sequence “MGSDKIHHHHHHMKRINCFIPYGKIEATRQTVAQLAESSLVSQIYLITDDPHAKAIYPCNLIRTENIWSTKTLREIAGYASAHYTLIYTKTEELQLGMYALERFVAIADDTRSGMVYSDYYEKKEGKLNPHPVIDYQKGSLRDDFNFGSLLLYRSSTLQNAIASMDTEYTFAGLYDLRLKVSQNAPLTHINEYLYTEVENDLRKSGEKMFDYVDPKNRSVQIEMEAACTDHLKMIGGYLPPHFKPVRFDEQTFQTEASVIIPVRNRVRTIEDAIRSVLRQEASFPFNLIIIDNHSTDGTSERIQAIAATDLRIIHIQPERDDLGIGGCWNIGIHHSACGKFAIQLDSDDVYSDEHTLRKIVEAFYEQRCAMVVGTYRMTDFDMRTIPPGIIDHKEWTPENGRNNALRINGLGAPRAFYTPLLRKLNLPNTSYGEDYALGLRISREYPIGRIYDVLYLCRRWEDNSDASLDVVKMNNHNIYKDKIRTWELEARLNMERQ”, the “soluble on expression in E. coli” value is “not soluble”.

With “ATPALRFVAVGDWGGVPNAPFHTAREMANAKEIARTVQILGADFILSLGDNFYFTGVQDINDKRFQETFEDVFSDRSLRKVPWYVLAGNHDHLGNVSAQIAYSKISKRWNFPSPFYRLHFKIPQTNVSVAIFMLDTVTLCGNSDDFLSQQPERPRDVKLARTQLSWLKKQLAAAREDYVLVAGHYPVWSIAEHGPTHCLVKQLRPLLATYGVTAYLCGHDHNLQYLQDENGVGYVLSGAGNFMDPSKRHQRKVPNGYLRFHYGTEDSLGGFAYVEISSKEMTVTYIEASGKSLFKTRLPRRARP”, the “soluble on expression in E. coli” value was “soluble”.

As for “MKKIGIIGGGQLGKMMTLEAKKMGFYVIVLDPTPRSPAGQVADEQIVAGFFDSERIEDLVKGSDVTTYDLEHIDVQTLKKLYNEGYKIHPSPYTLEIIQDKFVQKEFLKKNGIPVPEYKLVKDLESDVREFGFPVVQKARKGGYDGRGVFIIKNEKDLENAIKGETYLEEFVEIEKELAVMVARNEKGEIACYPVVEMYFDEDANICDTVIAPARIEEKYSKIAREIATSVVEALEGVGIFGIEMFLTKQGEILVNEIAPRPHNSGHYTIEACVTSQFEQHIRAIMNLPLGSTELLIPAVMVNLLGEEGYYGKPALIGLEEALAIEGLSLHFYGKKETRPYRKMGHFTVVDRDVERALEKALRAKKILKVVSEEGAMCQG”, the “soluble on expression in E. coli” value is listed as “soluble”.

As for “MPPASLTFEPPSVVAVFATHAVLCWEQPRTPHTTSFAEHMAWEYQIEYNCSCRVRQQPYCATGSNTFVLLATPHEGETYYVRVVAKASFAGSTSGLVSAKAAFTASCNVAMPWRCSARPPVCVFDALYLSANVEAEDIAALSAARSSTIDNAAVLDGKSVCYTLEGDIAVRTYRMLYSGTAALPVGPARTVYYMVATTRLHTGKRTRAMELLSIMQREGASIVFCGIGDGGRLALCAALTFLSFLTTACPALCASVLCITYGTPRLLLKEGPRLLAHTLPLSGQLLHFTQLPLIEHTPFVSDTVALSQRGSGVAVDTPPLGYANGFYRNMLLGAQCRVTDWTGLHFRLSSPDELSTEAEEAEVFDVVGQLRALSELFFPSSLQWLSPSVTSVSCRTEGPLLHVSVEGLTCITALG”, the “soluble on expression in E. coli” value is listed as “not soluble”.

On to “MSSNAQAIAGLEDRSAIPPTALKATLDHRLGEAAPSDYAKTLLASADAPTLRHLLGLGDAAVMDTGSGKNLDADLLDGYHGTYYLQWRNLQNTPQTYPPSAHQHASSDIPELASQLDTLVKKTGSLMTGSLQSQGTLIGDALGNGRIPALKIGNDCEFWDNNIPYAATFRSGTSPAIAQLFFGTSNHCYFGTSTKNTSTVIGAKTGLLWIETAGNYYYQQHDTTHVAFYKKNGGHAFFWRRSDSGGSGSTNEVQLMALEDNGNLSVKGTIVSAGGYAQGSSRKLKDIEGPLPYGLAEIEQLTPLIGRYKPSYTPDGRRRLFLEAEQLLDLMPETVNPEGIPFQGAYVPSVNLDQLLPVLVNAIAQLSAKVNALTDAPRHAEKLEHHHHHH”, for which the “soluble on expression in E. coli” value is given as “not soluble”.

The record behind these values is the DeepSol protein solubility set.
